The values that follow come from paper PMC12277127 (Nucleic Acids Research, 2024).

Settings in all cases: both partners purified
The target in experiment [1] is T1, M1-linked diUb (UniProt P0CG48 1-152).
T1 construct: two ubiquitin units head to tail on one chain (M1-linked, linear); plasmid pET-47b-N-His-Ub2; The His tag was removed by HRV 3C only for the 15N-labelled M1-Ub2 of the NMR work, as far as the methods tell; also called M1-Ub2; M1-Ub2 WT; source: E. coli BL21(DE3), purified (HisTrap, SEC)
Nature of the experiment: ITC; ubiquitin species titrated into the SPRTN fragment (arrows in Supplementary Figures 4A, 4D, 6A); 25°C; 50 mM HEPES pH 7.4, 50 mM NaCl, 0.5 mM TCEP-HCl; one-site binding model; at least 3 repeats, undetectable pairs 1 repeat.

Experiment [2] has as its target T2, M1-linked hexaUb (UniProt P0CG48 1-456).
T2 construct: six ubiquitin units head to tail on one chain (M1-linked, linear); plasmid pET-24-hexaUb; also called M1-Ub6; source: E. coli BL21(DE3), purified (HisTrap, SEC)
Described as above.

The target in experiment [3] is T3, M1-linked tetraUb (UniProt P0CG48 1-304).
T3 construct: four ubiquitin units head to tail on one chain (M1-linked, linear); plasmid pET-24-tetraUb; also called M1-Ub4; source: E. coli BL21(DE3), purified (HisTrap, SEC)
The experiment is described as above.

Experiment [4] deals with T4, M1-linked hexaUb (His-tagged M1-Ub6) (UniProt P0CG48 1-76; P0CG48 1-76; P0CG48 1-76; P0CG48 1-76; P0CG48 1-76; P0CG48 1-76).
T4 construct: ubiquitin unit 1 of 6, joined head to tail (M1-linked); ubiquitin unit 2 of 6; ubiquitin unit 3 of 6; ubiquitin unit 4 of 6; ubiquitin unit 5 of 6; ubiquitin unit 6 of 6; source: E. coli BL21(DE3), purified (HisTrap, SEC)
In words: ITC; MicroCal PEAQ-ITC, 25°C, 50 mM HEPES pH 7.4, 50 mM NaCl, 0.5 mM TCEP–HCl; one-site binding model; who was in the syringe is not told. In general terms: ITC needs no label: the signal is the heat of the interaction.

Experiment [5] addresses T5, M1-linked diUb (His-tagged M1-Ub2) (UniProt P0CG48 1-76; P0CG48 1-76).
T5 construct: ubiquitin unit 1 of 2 (distal), joined head to tail (M1-linked); ubiquitin unit 2 of 2 (proximal); its I44 is printed as position 120 of the chain; also called linear diUb; source: E. coli BL21(DE3), purified (HisTrap, SEC)
The experiment is described as above.

Experiment [6] addresses T6, M1-linked tetraUb (His-tagged M1-Ub4) (UniProt P0CG48 1-76; P0CG48 1-76; P0CG48 1-76; P0CG48 1-76).
T6 construct: ubiquitin unit 1 of 4, joined head to tail (M1-linked); ubiquitin unit 2 of 4; ubiquitin unit 3 of 4; ubiquitin unit 4 of 4; source: E. coli BL21(DE3), purified (HisTrap, SEC)
The experiment is described as above.

Experiment [7] concerns the target T7, Proliferating Cell Nuclear Antigen (UniProt P12004 1-261).
T7 construct: PCNA; plasmid pET16b-PCNA (Addgene #134898); also called PCNA; source: E. coli BL21(DE3), purified (Q Sepharose, heparin, SEC)
Nature of the experiment: SPR; SPRTN PIP-UBZ amine-coupled to a CM5 chip (~1000 RU); analytes monoUb, PCNA, monoUb-PCNA; 50 mM HEPES pH 7.4, 50 mM NaCl, 0.5 mM TCEP-HCl; steady-state affinity model.

Broadly, the Kd is the concentration at which binding is half-saturated. Higher therefore signals a looser complex.

T7 sequence (P12004 whole entry): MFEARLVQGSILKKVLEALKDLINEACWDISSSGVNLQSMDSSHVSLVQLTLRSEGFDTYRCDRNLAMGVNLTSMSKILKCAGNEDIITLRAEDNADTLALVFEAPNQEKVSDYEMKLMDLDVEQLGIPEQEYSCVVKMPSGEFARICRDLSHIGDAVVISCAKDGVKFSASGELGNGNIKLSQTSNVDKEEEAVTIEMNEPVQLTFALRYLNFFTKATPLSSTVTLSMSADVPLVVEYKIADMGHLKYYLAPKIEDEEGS

B1: SPRTN core region (26-240 aa), E112Q (domain or fragment, human, UniProt Q9H040 26-240, looked up)
chain: QESLSLVDASWELVDPTPDLQALFVQFNDQFFWGQLEAVEVKWSVRMTLCAGICSYEGKGGMCSIRLSEPLLKLRPRKDLVETLLHQMIHAYLFVTNNDKDREGHGPEFCKHMHRINSLTGANITVYHTFHDEVDEYRRHWWRCNGPCQHRPPYYGYVKRATNREPSAHDYWWAEHQKTCGGTYIKIKEPENYSKKGKGKAKLGKEPVLAAENKD
notes: SPRTN, human, residues 26-240 (MPD, ZBD and BR); plasmid pNIC28-SPRTN core (26-240), E112Q; also called SPRTN core (E112Q); SPRTN core E112Q; source: E. coli BL21(DE3), purified (Ni-NTA, TEV cleavage, SEC)
Consider B1, for which the dissociation constant (Kd) in experiment [1] came to 132 ± 3.9 µM; in experiment [2], 34.8 ± 3.8 µM; in experiment [3], 69.7 ± 6.9 µM.

B2: SPRTN core region (E112Q), enzymatically inactive (domain or fragment, human, UniProt Q9H040 26-240, looked up)
chain: QESLSLVDASWELVDPTPDLQALFVQFNDQFFWGQLEAVEVKWSVRMTLCAGICSYEGKGGMCSIRLSEPLLKLRPRKDLVETLLHQMIHAYLFVTNNDKDREGHGPEFCKHMHRINSLTGANITVYHTFHDEVDEYRRHWWRCNGPCQHRPPYYGYVKRATNREPSAHDYWWAEHQKTCGGTYIKIKEPENYSKKGKGKAKLGKEPVLAAENKD
notes: SPRTN, human, residues 26-240 (plasmid pNIC28-SPRTN (26-240)), variant E112Q; also called SPRTN core (E112Q); ΔMIU, ΔC: 26–240 aa; source: E. coli BL21(DE3), purified (Ni-NTA, TEV cleavage, HisTrap flow-through, SEC)
Consider B2, for which the Kd in experiment [4] was about 35 µM; in experiment [5], about 132 µM; in experiment [6], about 70 µM.

B3: SPRTN PIP-UBZ (320-489) (domain or fragment, human, UniProt Q9H040 320-489, looked up)
chain: VSNSHQNVLSNYFPRVSFANQKAFRGVNGSPRISVTVGNIPKNSVSSSSQRRVSSSKISLRNSSKVTESASVMPSQDVSGSEDTFPNKRPRLEDKTVFDNFFIKKEQIKSSGNDPKYSTTTAQNSSSSSSQSKMVNCPVCQNEVLESQINEHLDWCLEGDSIKVKSEESL
notes: SPRTN, human, PIP box to UBZ, residues 320-489; plasmid pCold I-SPRTN-PIP-UBZ (320-489); Its purification is not described; amine-coupled to a CM5 chip for SPR
For the molecule B3, in experiment [7], the Kd turned out to be 12.8 ± 2 µM.
